Results from the nanobody polyreactivity screen of Harvey et al. (2022).

test: yeast display, Sf9 membrane polyspecificity reagent, FACS + sequencing; frameworks hold sequencing errors
In short: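 A nanobody's polyreactivity label depends on the gate it was sorted from. Yeast display cells were stained with 10% biotinylated, detergent-solubilized Sf9 membrane reagent for 1 hour at 4 °C, enriched on streptavidin microbeads and sorted by FACS. The low and high (top ~1%) gates were set on anti-HA fluorescence for expression and streptavidin fluorescence for reagent binding.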

Row | Sequence | polyreactivity (PSR sort gate)
1 | QVQLVESGGGLVQAGGSLRISCAPSGSTFYYNAIGWSRQAPGKERELVARISRSGGSTYADSVKGRFTISRDNAKNTVYLQMNSLKPEDTAVYYCNADAYGTPEFTSYAVRYDYWGQGTQVTVSS | low polyreactivity
2 | QVHLVESGGGLVKAGGSLRLSCAASGRTFAQYVMGWYRQAPGKERELVAAITWSGGSSYYADSVKGRFTISRDNAKNTVYLQMNSLKPEDTALYYCAVKGAGGPKDDYWGQGTQVTVSS | high polyreactivity
3 | QVQLVESGGGLVQAGGSLRLSCAASGIIFTYYAMGWYRPAPGKERELVAAISSGGGSTYYADSVKGRFTISRDNAKITVYLQMNSLKPEDTAVYYCNADYYFVYTYLHDYWGQGTQVTVSS | low polyreactivity
4 | QVQLVESGGGLVQAGGSLRLSCAASGRTFLLYAMGWYRPAPGKERELVAAIRSSTVSTYYADSVKGRFTISRDNAKNTVYLQMNSLKPEDTAVYYCAASRPKYGPSGVRYNYWGQGTQVTVSS | high polyreactivity
5 | QVQLVESGGGLVQAGGSLRISCAASGRTFYWNAMGWYRQAPGKERELVASINGGGSTYYADSVKGRFTISRDNAKNTVYLQMNSLKPEDTAVYYCNAESYEFHRAWGDYDYWGQGTQVTVSS | low polyreactivity
6 | QDQLVESGGGLVQAGGSLRLSCGASGGIFWKYAMGWYRQAPGKERELVAAISRSGSSTYYADSVKGRFTISRDNAKNTVYLQMNSLKPEDTAVYYCAAQPYDSNYGNSGYWGQGTQVTVSS | high polyreactivity
7 | QVQLVESGGGLVQAGGSLRLSGDASGSTFIYNAMGWYRQAPGKERELVAAIDWSGGDTYYADSVKGRFTISRDKAKNTVYLLMNSLKPEDTAVYYCAAVKRGGFYWGQGTQVTVSS | high polyreactivity
8 | QVQLVESGGGLVLAGGSLRLSCAASGSTFGDYAMGWYRQAPGNERELVAAISARGASTYYADSVKGRFTISRDNAKNTVYLQMNSLKPEDTAVYYCAARYVSSGRRFDYWGQGTQVTVSS | high polyreactivity
9 | QVQLVESGGGLVQAGGSLRLSCAASGRIFGAYAMGWYRQAPGKERELVAAITSGGSTYYADSVKGRFTISRDNAKNTVYLQMNSLKPEDTAVYYCNALRRSQPWKYDYWGQGTQVTVSS | low polyreactivity
10 | QVQLVESGRGLVQAGGSLRLSCAASGRIFKAYAMGWYRQAPGKERELVAAISRSGGRTFYADSVKGRFTISRDNAKNTVYLQMNSLKPEDTAVYYCAVDVSPDSEYYYWGQGTQVTVSS | high polyreactivity
11 | QVQLVESGGGLVQAGGSLRLSCAASGSTFSWYAMGWYRQAPGKERELVASISFSGGDTSYADSVKGRFTISRDNAKNTVYLQMNSLKPEDTAVYYCGKEYKYETDTKFDYWGQGTQVTVSS | low polyreactivity
12 | QDQLVESGGGLVQAGGSLRLSCAASGSTFAFKTMGWYRQAPGKERELVAGISSNGGRTYYADSVKGRFTISRDNAKNTVYLQMNSLKPEDTAVYYCNALRRYVSVRPTKSDYWGQGTQVTVSS | high polyreactivity
13 | QVQLVESGGGLVQAGGSLRLSCAASGTTFVSYSMGWYRQAPGKEREFVATISISGTSTYYADSVKGRFTISRDNAKNTVYLQMISLKPEDTAVYYCAARLRRRGATQFYRYDYWGQGTQVTVSS | high polyreactivity
14 | QVQLVESGGGLVQAGGSLRLSCAASGRTFGRYAMGWYRQAPGKERELVAVISWSDGGTNYADSVKGRFTISRDNAKNTVYLQMNSLKPEDTAVYYCNAELSFRYPVFRELDYWGQGTQVTVSS | low polyreactivity
15 | QVQLVESGGGLVQAGGSLRLSCAASGRTFGLNAMGWYRQAPGKDRELVAAISSSGGSTYYADSVKGRFTISRDNAKNTVYLQKNSLKPEDTAVYYCAKGLYRYGTAYYYWGQGTQVTVSS | high polyreactivity
16 | QVQLVESGGGLVQAGGSLRLSCAASGSIFGWNAMGWYRQAPGKERELVAAINWTGGTTYYADSVKGRFTISRDNEKNTVYLQMNSLKPEDTAVYYCAARLTYHVAGQMTRYYYWGQGTQVTVSS | low polyreactivity
17 | QVQLVESGGGLVQAGGSLRLICAASGRTFRKYAMGWYRQAPGKERELVAAINRGGTTKYADSVKGRFTISRDNAKNTVYLQMNSLKPEDTAVYYCNAAYGGVFFYAYDYWGQGTQVTVSS | low polyreactivity
18 | QVPLVDSGGGLVQAGGSLRLSCAASGRSYGIYAMGWYIQAPGKERELVASITGRGGSTYYADSVKGRFTISRDNAKNTFYLQKNSLKPDDTAVYFCAARDRPYVHYSGLDYWGQGTQVTVSS | high polyreactivity
19 | QVQLVESGGGLVQAGGSLRLSCAASGLTFVIYAMGWYRQAPGKERELVARITWSGGSTYYADSVKGRFTISRDNAKNTVYLQMNSLKPEETAVDYCAARRFYYYNAGYDSWGQGTQVTVSS | low polyreactivity
20 | QGQRVESGGGLGQAGGSLRISCAASGLTFHRYAMGWYRQAQGKETELVAAINYSGGRTYYADSVKGRFTISRDNAKYTVYFQMNSLKPEDTAVYYCNVARWGNIPVGEYDYWGQGTQVTVSS | high polyreactivity
21 | QVQLVESGGGLVQAGGSLRLSCAASGLTFYYYAMGWYRQATGKERELVATITRSGGGTYFADSVKGRFTISRDNAKNTVYLQMNSLKPEDTAVYYCAADLSWYVLFSGLYDYWGQGTQVTVSS | high polyreactivity

Row | Sequence | polyreactivity (PSR sort gate)
22 | QVQLVESGGGLVQAGGSLRLSCAASGYIFHDNAMGWYRQAPGKERELVAGITTGGSTYYADSVKGRFTISRDNAKYTVYLQMNSLKPEDTAVYYCAAKVWSRSFYKYYYWGQGTQVTVSS | high polyreactivity
23 | QVQLVESGGGLVQAGGSLRLSCAASGFTFSYYAMGWYRQAPGKERELVAAISWNGGSTYYADSVKGRFTISRDNAKNTVYLQMNSLKPEDTAVNYCAADSLLYYYDTGYEYWGQGTQVTVSS | high polyreactivity
24 | QVQLVESGGGLVQAGGSLRLSCAASGFIIGWYVMGWYRQAPGKERELVAAITWDSTSTYYADSVKGRFTISRDNAKNTVYLQMNSLKPEDTAVYYCAADRLDRYYYWGEGTQVTVSS | low polyreactivity
25 | QVQLVESGGGLVQAGGSLRLSCAAYGRTFGRYAMGWYRQAPGKERELVAVINGGGSTYYADSVKGRFTISRDNAKNTVYLQMNSLKPEDTAVDYCAVGGYTRTGGWFDYWGQGTQVTVSS | high polyreactivity
26 | QVQLVESGGGLVQAGGSLRLSCAAYGRTFARYAMGWYRQAPGKERELVAAISKSGVSTYYADSVKGRFTISRDHAKNTLYLQMNSLKPEDTAVYYCAAYVRQLQVVRGVSNYDSWGQGTQVTVSS | high polyreactivity
27 | QVQLVESGGGLVQAGGSLRLSCAASGLTFYYYAMGWYRQAPGKERELVAAISCSGGSTYYADSVKGRFTISRDNAKNTVYLQMNSLKPEDTAVYYCAAEGDYFLWYRYDYWGQGTQVTVSS | high polyreactivity
28 | QVQLVESAGGLVQAGGSLSLSCAASGRIFYYNTMGWYRQAPGKERELVAAISSTASTTYADSVKGRFTISRDNAKNTVYLQMNILKPEDTAVYYCAADHRYHWAYPRGYYYWGQGTQVTVSS | high polyreactivity
29 | QVQLVESGGGLVQAGGSLRLSCAASGRIFTLYAMGWYRQAPGKERELVAAISYGGGGTYYADSVKGRFTISRDNAKNTVYLQMNRLKPEDSAVYFCATDDPLSQINEQGMDYWGQGTQVTVSS | low polyreactivity
30 | QVQLVESGGGLVQAGGSLRLSCAASGFTFRVYAMGWYRQAPGKERELVAAITNSGGNTYYADSVKGRFTISRDNAKNTVYLQMNSLKPEDTAVYYCNRRYRYRFGYWGQGTQVTVSS | high polyreactivity
31 | QVQLVESGGGLVQAGGSLRLSCAASGITFRWYAMGWYRQAPGKERELVAAISTSGTRTYYADSVKGRFTISRDNAKNTVYLLMNSLKPEDTAVYYCAADYGRQLGRYGFGYWGQGTQVSVSS | high polyreactivity
32 | QVQLVESGGGLVQAGGSLRLSCAASGSTFWVNVMGWYRQAPGKERELVAAITTGSSPYYADSVKGRFTISRDNAKNTVYLQMNSLKPEDTAVYYCNVFQGTRYGYWGQGTQVTVSS | low polyreactivity
33 | QVQLVESGGGLVQAGGSLRLSCAASGSTFTVYAMGWYRQAPGKERELVAAISSSTGSTYYADSVKGRFTISRDNAKNTVYLQMNSLKPEDTAVYYCAADVYQVTTSSYTEFEYWGQGTQVTVSS | low polyreactivity
34 | QVQLEESGGRLVQEGGSLRLSCAASGYIFQGNAMGWYTPAPGKERELVAAITSSGGRTYYADSVKGRFTISRDNAKNTVYLQMHSLKPEDTAVYYCAAKSVRRGGGEYWGEGTQVTVSS | high polyreactivity
35 | QVQLVESGGGLVQAGGSLRLSCAASGRTFNWYAMGWYRQAPGKERELVAAIRVNGGITYYADSVKGRFTISRDNAMNTVYLQMNSLKPEDTAVYYCAVYSRQGLGYWGQGTQVTVSS | high polyreactivity
36 | QVQLVESGGGLVQAGGSLRLSCAASGRIFSPYAMGWYRQATGKERELVAAIDWDGGGTYYADSVKGRFTISRDNAKNTVYLQMNSLKPEDTAVYYCAAETDLANGTSPSDYWGQGTQVTVSS | low polyreactivity
37 | QVQLVESGGGLLQAGGSLRISCAASGRTLFVYDMGWYRQAPGKERDLVAAITGDGSTNYADSVKGRFTISRDNAKNTVYLQMNSLKPEDPAVYYCNAGDRIGFWNTVEYNYWGQGTQVTVSS | low polyreactivity
38 | QVQLVESGGGLVPAGGSLRLSCAASGRIFVVYSMGWYRQAPGKERELVASISGGSTNYADSVKGRFTISRDNAKNTVYLQMNSLKPEDTAVYFCGMEYWGQGTQVTVSS | low polyreactivity
39 | QVQLVESGGGLVQAGGSLRLSCAASGSIFVRYAMGWYRQAPGKERELVASIRSRGDSTYYADSVKGRFTISRDNAKNTVYLQMNSLKPEDTAVYYCAVQRSYVGPRQYNYWGQGTQVTVSS | high polyreactivity
40 | QVRLVESGGGLVQAGGSLRLSCAASGFTFVVNAMGWYRQAPGKERELVAAITCSGGRTYYADSVKGRFTISRDNAKNTVSLQMNSLKPEDTAVYYCNAEWDDYEIEYDYWGQGTQVTVSS | low polyreactivity
41 | QVQLVESGGGLVQAGGSLRLSCAASGLTISRYAMGWYRQAPGKEREFVASISISSVDTYYADSVKGRFTISRDNAKNTVYLQMNSLKPEDTAVYYCAAAGRVGVTRYYSWGQGTQVTVSS | high polyreactivity
